Measured values reported in publication PMC10582448.

Molecular target: nucleosomes reconstituted in vitro from X. laevis core histones on biotinylated pKYB1 DNA (Xenopus laevis)
Assay: optical tweezers with confocal fluorescence microscopy; nucleosomes on pKYB1 DNA tethered between streptavidin beads, in 1–2 nM fluorescently labelled chaperone; force-extension curves 1–32 pN at 20 nm/s with kymographs at 4 Hz; binding events after unwrapping / at high force (>10 pN); 25 mM HEPES, 50 mM KCl, 0.1 mM EDTA, pH 7.5

Sequence of nucleophosmin 1, labelled with Alexa Fluor 532 (P06748 whole entry): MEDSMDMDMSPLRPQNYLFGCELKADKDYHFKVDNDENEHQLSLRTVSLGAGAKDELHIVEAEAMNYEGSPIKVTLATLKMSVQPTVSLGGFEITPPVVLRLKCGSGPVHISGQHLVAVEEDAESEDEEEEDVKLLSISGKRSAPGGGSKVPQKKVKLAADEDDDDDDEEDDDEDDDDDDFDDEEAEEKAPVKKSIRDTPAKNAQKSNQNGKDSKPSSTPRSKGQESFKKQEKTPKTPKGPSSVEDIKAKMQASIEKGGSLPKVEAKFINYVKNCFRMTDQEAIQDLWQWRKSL

percent of the chaperone binding events found after complete unwrapping [%]	Substance
> 90	SET/template‐activating factor‐Iβ Q69C, labelled with Alexa Fluor 532 (from UniProt Q01105-2 1-277) (natural protein)
> 90	nucleophosmin 1, labelled with Alexa Fluor 532 (from UniProt P06748 1-294) (natural protein)
